# Measurements: patent US20260167734A1
# Biological target: human FasL, cell surface (membrane-bound) (human) (UniProt P48023)
# Experiment: cell-based or functional assay
# Chain of human FasL, cell surface (membrane-bound) (human) (P48023 whole entry): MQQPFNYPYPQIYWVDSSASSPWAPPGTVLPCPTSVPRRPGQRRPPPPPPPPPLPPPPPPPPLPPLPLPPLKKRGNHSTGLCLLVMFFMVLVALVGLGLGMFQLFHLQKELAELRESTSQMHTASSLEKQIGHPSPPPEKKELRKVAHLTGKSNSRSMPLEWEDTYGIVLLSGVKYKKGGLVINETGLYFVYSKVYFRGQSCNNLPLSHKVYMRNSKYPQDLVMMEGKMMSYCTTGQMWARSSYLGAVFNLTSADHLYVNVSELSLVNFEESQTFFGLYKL
substance,measurement,value
soluble CD95-Fc (sCD95-Fc) fusion protein (from UniProt P25445 26-172) (Fc fusion),"inhibition of FasL-mediated apoptosis of Jurkat cells (annexin-V externalization, flow cytometry), IC50",0.102 µM
